Measured values reported in publication PMC5518878, “Molecular assembly of rhodopsin with G protein-coupled receptor kinases” (Cell Research, 2017).

What was measured:
[1] = target: T1, serotonin receptor 5-HT1B fused to a TEV cleavage site and tTA (human, UniProt P28222 1-390); experiment: Tango assay (TEV protease proximity reporter); HTL cells co-transfected with receptor-TEV cleavage site-tTA and GRK-TEV protease fusions; luciferase reporter; vehicle or ligand overnight (ATR 10 μM for rhodopsin; paroxetine; DHE 0.1 μM, GR 127935 1 μM; SX 1 μM, ICI 118 551 1 μM); DNA amounts adjusted for similar expression; conditions: partners not purified
T1 construct: human serotonin receptor 5-HT1B; also called HTR1b; source: HTL cells, transfected (pcDNA3), in cells; not shown: TEV cleavage site (ENLYFQS), C-terminal, kept

[2] = target: T2, β2-adrenergic receptor fused to a TEV cleavage site and tTA (human, UniProt P07550 1-413); experiment: as above; conditions: partners not purified
T2 construct: human β2-adrenergic receptor; also called β2AR; source: HTL cells, transfected (pcDNA3), in cells; not shown: TEV cleavage site (ENLYFQS), C-terminal, kept

[3] = target: T3, Arrestin-biotin-MBP (human wild-type visual arrestin), purified (human, UniProt P10523 1-405, biotin on the tag); experiment: AlphaScreen or HTRF; biotinylated WT arrestin and His8-tagged 4M Rho, with 80 nM purified GRK1 and 40 μM ATP added (indirect kinase assay); conditions: both partners purified
T3 construct: human visual arrestin (arrestin1); also called WT arrestin; arrestin1; source: Sf9 insect cells, purified on amylose beads; not shown: biotin tag, C-terminal, kept

Row | Binder | fold induction by the agonist dihydroergotamine over the vehicle control [1] | fold induction by the agonist salmeterol xinafoate over the vehicle control [2] | binding result [3]
1 | bovine GRK2 fused to the N-terminus of TEV protease (enzyme, UniProt P21146 1-689, looked up, bovine GRK2; source: HTL cells, transfected (pcDNA3), in cells; not shown: HA or FLAG, C-terminal, kept; TEV protease, C-terminal, kept) MADLEAVLADVSYLMAMEKSKATPAARASKKILLPEPSIRSVMQKYLEDRGEVTFEKIFSQKLGYLLFRDFCLKHLEEAKPLVEFYEEIKKYEKLETEEERLVCSREIFDTYIMKELLACSHPFSKSAIEHVQGHLVKKQVPPDLFQPYIEEICQNLRGDVFQKFIESDKFTRFCQWKNVELNIHLTMNDFSVHRIIGRGGFGEVYGCRKADTGKMYAMKCLDKKRIKMKQGETLALNERIMLSLVSTGDCPFIVCMSYAFHTPDKLSFILDLMNGGDLHYHLSQHGVFSEADMRFYAAEIILGLEHMHNRFVVYRDLKPANILLDEHGHVRISDLGLACDFSKKKPHASVGTHGYMAPEVLQKGVAYDSSADWFSLGCMLFKLLRGHSPFRQHKTKDKHEIDRMTLTMAVELPDSFSPELRSLLEGLLQRDVNRRLGCLGRGAQEVKESPFFRSLDWQMVFLQKYPPPLIPPRGEVNAADAFDIGSFDEEDTKGIKLLDSDQELYRNFPLTISERWQQEVAETVFDTINAETDRLEARKKTKNKQLGHEEDYALGKDCIMHGYMSKMGNPFLTQWQRRYFYLFPNRLEWRGEGEAPQSLLTMEEIQSVEETQIKERKCLLLKIRGGKQFVLQCDSDPELVQWKKELRDAYREAQQLVQRVPKMKNKPRSPVVELSKVPLIQRGSANGL | 2.5 fold | 2 fold | 
2 | H8-MBP-Rho (4M) phosphorylated by purified GRK1 with ATP (receptor, human, UniProt P08100 1-348, looked up, phosphorylated by GRK1; sites not stated, human rhodopsin; also called GRK-phosphorylated Rho; source: HEK293S cells, purified on amylose beads; phosphorylated in the assay mixture by 80 nM purified GRK1 with 40 μM ATP; not shown: His8, N-terminal, kept) MCGTEGPNFYVPFSNATGVVRSPFEYPQYYLAEPWQFSMLAAYMFLLIVLGFPINFLTLYVTVQHKKLRTPLNYILLNLAVADLFMVLGGFTSTLYTSLHGYFVFGPTGCNLQGFFATLGGEIALWSLVVLAIERYVVVCKPMSNFRFGENHAIMGVAFTWVMALACAAPPLAGWSRYIPEGLQCSCGIDYYTLKPEVNNESFVIYMFVVHFTIPMIIIFFCYGQLVFTVKEAAAQQQESATTQKAEKEVTRMVIIYVIAFLICWVPYASVAFYIFTHQGSCFGPIFMTIPAFFAKSAAIYNPVIYIMMNKQFRNCMLTTICCGKNPLGDDEASATVSKTETSQVAPA |  |  | binds
